{"source": "patent US9625458", "molecular_target": "Gly-Leu dipeptide", "assay": "fluorimetric titration of the fluorophore conjugate with ligand, fit to binding isotherm", "data": [{"binder": "dipeptide BP K394C-NBD conjugate (receptor, E. coli, not shown: small tags and cut ends, NBD fluorophore conjugated to the thiol of Cys 394) MKTLVYCSEGSPEGFNPQLFTSGTTYDASSVPLYNRLVEFKIGTTEVIPGLAEKWEVSEDGKTYTFHLRKGVKWHDNKEFKPTRELNADDVVFSFDRQKNAQNPYHKVSGGSYEYFEGMGLPELISEVKKVDDNTVQFVLTRPEAPFLADLAMDFASILSKEYADAMMKAGTPEKLDLNPIGTGPFQLQQYQKDSRIRYKAFDGYWGTKPQIDTLVFSITPDASVRYAKLQKNECQVMPYPNPADIARMKQDKSINLMEMPGLNVGYLSYNVQKKPLDDVKVRQALTYAVNKDAIIKAVYQGAGVSAKNLIPPTMWGYNDDVQDYTYDPEKAKALLKEAGLEKGFSIDLWAMPVQRPYNPNARRMAEMIQADWAKVGVQAKIVTYEWGEYLKRACDGEHQTVMMGWTGDNGDPDNFFATLFSCAASEQGSNYSKWCYKPFEDLIQPARATDDHNKRVELYKQAQVVMHDQAPALIIAHSTVFEPVRKEVKGYVVDPLGKHHFENVSIE", "values": [{"measurement": "Kd", "result": 12, "unit": "nM"}]}, {"binder": "dipeptide BP T44C-NBD conjugate (receptor, E. coli, not shown: small tags and cut ends, NBD fluorophore conjugated to the thiol of Cys 44) MKTLVYCSEGSPEGFNPQLFTSGTTYDASSVPLYNRLVEFKIGTCEVIPGLAEKWEVSEDGKTYTFHLRKGVKWHDNKEFKPTRELNADDVVFSFDRQKNAQNPYHKVSGGSYEYFEGMGLPELISEVKKVDDNTVQFVLTRPEAPFLADLAMDFASILSKEYADAMMKAGTPEKLDLNPIGTGPFQLQQYQKDSRIRYKAFDGYWGTKPQIDTLVFSITPDASVRYAKLQKNECQVMPYPNPADIARMKQDKSINLMEMPGLNVGYLSYNVQKKPLDDVKVRQALTYAVNKDAIIKAVYQGAGVSAKNLIPPTMWGYNDDVQDYTYDPEKAKALLKEAGLEKGFSIDLWAMPVQRPYNPNARRMAEMIQADWAKVGVQAKIVTYEWGEYLKRAKDGEHQTVMMGWTGDNGDPDNFFATLFSCAASEQGSNYSKWCYKPFEDLIQPARATDDHNKRVELYKQAQVVMHDQAPALIIAHSTVFEPVRKEVKGYVVDPLGKHHFENVSIE", "values": [{"measurement": "Kd", "result": 6, "unit": "nM"}]}, {"binder": "dipeptide BP R141C-Fluorescein conjugate (receptor, E. coli, not shown: small tags and cut ends, fluorescein (5-iodoacetamidofluorescein) conjugated to the thiol of Cys 141) MKTLVYCSEGSPEGFNPQLFTSGTTYDASSVPLYNRLVEFKIGTTEVIPGLAEKWEVSEDGKTYTFHLRKGVKWHDNKEFKPTRELNADDVVFSFDRQKNAQNPYHKVSGGSYEYFEGMGLPELISEVKKVDDNTVQFVLTCPEAPFLADLAMDFASILSKEYADAMMKAGTPEKLDLNPIGTGPFQLQQYQKDSRIRYKAFDGYWGTKPQIDTLVFSITPDASVRYAKLQKNECQVMPYPNPADIARMKQDKSINLMEMPGLNVGYLSYNVQKKPLDDVKVRQALTYAVNKDAIIKAVYQGAGVSAKNLIPPTMWGYNDDVQDYTYDPEKAKALLKEAGLEKGFSIDLWAMPVQRPYNPNARRMAEMIQADWAKVGVQAKIVTYEWGEYLKRAKDGEHQTVMMGWTGDNGDPDNFFATLFSCAASEQGSNYSKWCYKPFEDLIQPARATDDHNKRVELYKQAQVVMHDQAPALIIAHSTVFEPVRKEVKGYVVDPLGKHHFENVSIE", "values": [{"measurement": "Kd", "result": 38000, "unit": "nM"}]}, {"binder": "dipeptide BP S111C-JPW4042 conjugate (receptor, E. coli, not shown: small tags and cut ends, JPW4042 fluorophore conjugated to the thiol of Cys 111) MKTLVYCSEGSPEGFNPQLFTSGTTYDASSVPLYNRLVEFKIGTTEVIPGLAEKWEVSEDGKTYTFHLRKGVKWHDNKEFKPTRELNADDVVFSFDRQKNAQNPYHKVSGGCYEYFEGMGLPELISEVKKVDDNTVQFVLTRPEAPFLADLAMDFASILSKEYADAMMKAGTPEKLDLNPIGTGPFQLQQYQKDSRIRYKAFDGYWGTKPQIDTLVFSITPDASVRYAKLQKNECQVMPYPNPADIARMKQDKSINLMEMPGLNVGYLSYNVQKKPLDDVKVRQALTYAVNKDAIIKAVYQGAGVSAKNLIPPTMWGYNDDVQDYTYDPEKAKALLKEAGLEKGFSIDLWAMPVQRPYNPNARRMAEMIQADWAKVGVQAKIVTYEWGEYLKRAKDGEHQTVMMGWTGDNGDPDNFFATLFSCAASEQGSNYSKWCYKPFEDLIQPARATDDHNKRVELYKQAQVVMHDQAPALIIAHSTVFEPVRKEVKGYVVDPLGKHHFENVSIE", "values": [{"measurement": "Kd", "result": 15800, "unit": "nM"}]}, {"binder": "dipeptide BP S111C-JPW4039 conjugate (receptor, E. coli, not shown: small tags and cut ends, JPW4039 fluorophore conjugated to the thiol of Cys 111) MKTLVYCSEGSPEGFNPQLFTSGTTYDASSVPLYNRLVEFKIGTTEVIPGLAEKWEVSEDGKTYTFHLRKGVKWHDNKEFKPTRELNADDVVFSFDRQKNAQNPYHKVSGGCYEYFEGMGLPELISEVKKVDDNTVQFVLTRPEAPFLADLAMDFASILSKEYADAMMKAGTPEKLDLNPIGTGPFQLQQYQKDSRIRYKAFDGYWGTKPQIDTLVFSITPDASVRYAKLQKNECQVMPYPNPADIARMKQDKSINLMEMPGLNVGYLSYNVQKKPLDDVKVRQALTYAVNKDAIIKAVYQGAGVSAKNLIPPTMWGYNDDVQDYTYDPEKAKALLKEAGLEKGFSIDLWAMPVQRPYNPNARRMAEMIQADWAKVGVQAKIVTYEWGEYLKRAKDGEHQTVMMGWTGDNGDPDNFFATLFSCAASEQGSNYSKWCYKPFEDLIQPARATDDHNKRVELYKQAQVVMHDQAPALIIAHSTVFEPVRKEVKGYVVDPLGKHHFENVSIE", "values": [{"measurement": "Kd", "result": 34000, "unit": "nM"}]}, {"binder": "dipeptide BP R141C-Acrylodan conjugate (receptor, E. coli, not shown: small tags and cut ends, acrylodan fluorophore conjugated to the thiol of Cys 141) MKTLVYCSEGSPEGFNPQLFTSGTTYDASSVPLYNRLVEFKIGTTEVIPGLAEKWEVSEDGKTYTFHLRKGVKWHDNKEFKPTRELNADDVVFSFDRQKNAQNPYHKVSGGSYEYFEGMGLPELISEVKKVDDNTVQFVLTCPEAPFLADLAMDFASILSKEYADAMMKAGTPEKLDLNPIGTGPFQLQQYQKDSRIRYKAFDGYWGTKPQIDTLVFSITPDASVRYAKLQKNECQVMPYPNPADIARMKQDKSINLMEMPGLNVGYLSYNVQKKPLDDVKVRQALTYAVNKDAIIKAVYQGAGVSAKNLIPPTMWGYNDDVQDYTYDPEKAKALLKEAGLEKGFSIDLWAMPVQRPYNPNARRMAEMIQADWAKVGVQAKIVTYEWGEYLKRAKDGEHQTVMMGWTGDNGDPDNFFATLFSCAASEQGSNYSKWCYKPFEDLIQPARATDDHNKRVELYKQAQVVMHDQAPALIIAHSTVFEPVRKEVKGYVVDPLGKHHFENVSIE", "values": [{"measurement": "Kd", "result": 2300, "unit": "nM"}]}, {"binder": "dipeptide BP W315C-JPW4039 conjugate (receptor, E. coli, not shown: small tags and cut ends, JPW4039 fluorophore conjugated to the thiol of Cys 315) MKTLVYCSEGSPEGFNPQLFTSGTTYDASSVPLYNRLVEFKIGTTEVIPGLAEKWEVSEDGKTYTFHLRKGVKWHDNKEFKPTRELNADDVVFSFDRQKNAQNPYHKVSGGSYEYFEGMGLPELISEVKKVDDNTVQFVLTRPEAPFLADLAMDFASILSKEYADAMMKAGTPEKLDLNPIGTGPFQLQQYQKDSRIRYKAFDGYWGTKPQIDTLVFSITPDASVRYAKLQKNECQVMPYPNPADIARMKQDKSINLMEMPGLNVGYLSYNVQKKPLDDVKVRQALTYAVNKDAIIKAVYQGAGVSAKNLIPPTMCGYNDDVQDYTYDPEKAKALLKEAGLEKGFSIDLWAMPVQRPYNPNARRMAEMIQADWAKVGVQAKIVTYEWGEYLKRAKDGEHQTVMMGWTGDNGDPDNFFATLFSCAASEQGSNYSKWCYKPFEDLIQPARATDDHNKRVELYKQAQVVMHDQAPALIIAHSTVFEPVRKEVKGYVVDPLGKHHFENVSIE", "values": [{"measurement": "Kd", "result": 1000, "unit": "nM"}]}, {"binder": "dipeptide BP T44C-Fluorescein conjugate (receptor, E. coli, not shown: small tags and cut ends, fluorescein (5-iodoacetamidofluorescein) conjugated to the thiol of Cys 44) MKTLVYCSEGSPEGFNPQLFTSGTTYDASSVPLYNRLVEFKIGTCEVIPGLAEKWEVSEDGKTYTFHLRKGVKWHDNKEFKPTRELNADDVVFSFDRQKNAQNPYHKVSGGSYEYFEGMGLPELISEVKKVDDNTVQFVLTRPEAPFLADLAMDFASILSKEYADAMMKAGTPEKLDLNPIGTGPFQLQQYQKDSRIRYKAFDGYWGTKPQIDTLVFSITPDASVRYAKLQKNECQVMPYPNPADIARMKQDKSINLMEMPGLNVGYLSYNVQKKPLDDVKVRQALTYAVNKDAIIKAVYQGAGVSAKNLIPPTMWGYNDDVQDYTYDPEKAKALLKEAGLEKGFSIDLWAMPVQRPYNPNARRMAEMIQADWAKVGVQAKIVTYEWGEYLKRAKDGEHQTVMMGWTGDNGDPDNFFATLFSCAASEQGSNYSKWCYKPFEDLIQPARATDDHNKRVELYKQAQVVMHDQAPALIIAHSTVFEPVRKEVKGYVVDPLGKHHFENVSIE", "values": [{"measurement": "Kd", "result": 640, "unit": "nM"}]}, {"binder": "dipeptide BP D450C-JPW4039 conjugate (receptor, E. coli, not shown: small tags and cut ends, JPW4039 fluorophore conjugated to the thiol of Cys 450) MKTLVYCSEGSPEGFNPQLFTSGTTYDASSVPLYNRLVEFKIGTTEVIPGLAEKWEVSEDGKTYTFHLRKGVKWHDNKEFKPTRELNADDVVFSFDRQKNAQNPYHKVSGGSYEYFEGMGLPELISEVKKVDDNTVQFVLTRPEAPFLADLAMDFASILSKEYADAMMKAGTPEKLDLNPIGTGPFQLQQYQKDSRIRYKAFDGYWGTKPQIDTLVFSITPDASVRYAKLQKNECQVMPYPNPADIARMKQDKSINLMEMPGLNVGYLSYNVQKKPLDDVKVRQALTYAVNKDAIIKAVYQGAGVSAKNLIPPTMWGYNDDVQDYTYDPEKAKALLKEAGLEKGFSIDLWAMPVQRPYNPNARRMAEMIQADWAKVGVQAKIVTYEWGEYLKRAKDGEHQTVMMGWTGDNGDPDNFFATLFSCAASEQGSNYSKWCYKPFEDLIQPARATCDHNKRVELYKQAQVVMHDQAPALIIAHSTVFEPVRKEVKGYVVDPLGKHHFENVSIE", "values": [{"measurement": "Kd", "result": 910, "unit": "nM"}]}, {"binder": "dipeptide BP S111C-Fluorescein conjugate (receptor, E. coli, not shown: small tags and cut ends, fluorescein (5-iodoacetamidofluorescein) conjugated to the thiol of Cys 111) MKTLVYCSEGSPEGFNPQLFTSGTTYDASSVPLYNRLVEFKIGTTEVIPGLAEKWEVSEDGKTYTFHLRKGVKWHDNKEFKPTRELNADDVVFSFDRQKNAQNPYHKVSGGCYEYFEGMGLPELISEVKKVDDNTVQFVLTRPEAPFLADLAMDFASILSKEYADAMMKAGTPEKLDLNPIGTGPFQLQQYQKDSRIRYKAFDGYWGTKPQIDTLVFSITPDASVRYAKLQKNECQVMPYPNPADIARMKQDKSINLMEMPGLNVGYLSYNVQKKPLDDVKVRQALTYAVNKDAIIKAVYQGAGVSAKNLIPPTMWGYNDDVQDYTYDPEKAKALLKEAGLEKGFSIDLWAMPVQRPYNPNARRMAEMIQADWAKVGVQAKIVTYEWGEYLKRAKDGEHQTVMMGWTGDNGDPDNFFATLFSCAASEQGSNYSKWCYKPFEDLIQPARATDDHNKRVELYKQAQVVMHDQAPALIIAHSTVFEPVRKEVKGYVVDPLGKHHFENVSIE", "values": [{"measurement": "Kd", "result": 2600, "unit": "nM"}]}, {"binder": "dipeptide BP S111C-Acrylodan conjugate (receptor, E. coli, not shown: small tags and cut ends, acrylodan fluorophore conjugated to the thiol of Cys 111) MKTLVYCSEGSPEGFNPQLFTSGTTYDASSVPLYNRLVEFKIGTTEVIPGLAEKWEVSEDGKTYTFHLRKGVKWHDNKEFKPTRELNADDVVFSFDRQKNAQNPYHKVSGGCYEYFEGMGLPELISEVKKVDDNTVQFVLTRPEAPFLADLAMDFASILSKEYADAMMKAGTPEKLDLNPIGTGPFQLQQYQKDSRIRYKAFDGYWGTKPQIDTLVFSITPDASVRYAKLQKNECQVMPYPNPADIARMKQDKSINLMEMPGLNVGYLSYNVQKKPLDDVKVRQALTYAVNKDAIIKAVYQGAGVSAKNLIPPTMWGYNDDVQDYTYDPEKAKALLKEAGLEKGFSIDLWAMPVQRPYNPNARRMAEMIQADWAKVGVQAKIVTYEWGEYLKRAKDGEHQTVMMGWTGDNGDPDNFFATLFSCAASEQGSNYSKWCYKPFEDLIQPARATDDHNKRVELYKQAQVVMHDQAPALIIAHSTVFEPVRKEVKGYVVDPLGKHHFENVSIE", "values": [{"measurement": "Kd", "result": 4800, "unit": "nM"}]}]}
